The values that follow come from the DeepSol protein solubility set.

The series in a line: soluble on expression in E. coli; label from the status in PepcDB or PDB records.
As to “MGSDKIHHHHHHMETARHRNTWHIHPDPEALARRLAAAVARMAREAITARGAFHLVVAGGTTPRAAYALLPQLGSDWQCWHLYHGDERCLPPQDPDRNSLMLDTVWLSRVPIPTRQIHHIPAERGADVAARDYAAVLPPHAFDLVLLGVGEDGHTASLFPGHDWGMAKNGPATIAVHDAAKAPPQRVSLSGWRLQYTREMFFMAAGGGKRSALTAWRQGEPIPAATVGTTADIWLDNTAWPEVVPGTI”, the “soluble on expression in E. coli” value is given as “not soluble”.
“MGSDKIHHHHHHMRKLKIGITCYPSVGGSGIIATELGKQLAEKGHEIHFITSSIPFRLNTYHPNIHFHEVEVNQYAVFKYPPYDLTLASKIAEVAERENLDIIHAHYALPHAVCAYLAKQMLKRNIGIVTTLHGTDITVLGYDPSLKDLIRFAIESSDRVTAVSSALAAETYDLIKPEKKIETIYNFIDERVYLKKNTAAIKEKHGILPDEKVVIHVSNFRKVKRVQDVIRVFRNIAGKTKAKLLLVGDGPEKSTACELIRKYGLEDQVLMLGNQDRVEDLYSISDLKLLLSEKESFGLVLLEAMACGVPCIGTNIGGIPEVIKNNVSGFLVDVGDVTAATARAMSILEDEQLSNRFTKAAIEMLENEFSSKKIVSQYEQIYADLAEPE”: the “soluble on expression in E. coli” value is on record as “not soluble”.
Turning to “MESKVERYVENYVVTKNTMALLPVILSEKKIVTRVVEMNDSFFVFQKPLDIIERSCRKHGSSFLGRKEGTKELTHITHKAPIAISPADQLYFFPTYSYSRKECAWLSHFYIESNKELKDGNLIIRFINGFAVKLEISKTSFENQQNRTAKLRTEYEDRRKKQGNPCFKEVDKKEESTLRPAYESVYFVKEGEV”, the “soluble on expression in E. coli” value is “not soluble”.
Turning to “MSLVIVMYSIKMRASKNGKHISGAERIVNKDEIEETVKELVRRALTHENGTPDFINIKIEEIKEEITYINHLPIKTIHCKDKEEARETAKKILRNEGIPDSVIDYAYEIIDKGGMRGAAILNLKGERLEPDKERGVRVKNIDTTKELKEKILKENLGTERTVDAIAIASKVIHLGVIAELCTSDNKSYTTGYVATKKGYFRITNLKKEGESGGRVFFVKDDVDIEDLINKLENKPEGHHHHHH”, the “soluble on expression in E. coli” value is listed as “soluble”.
With “MTKKLIKIWRKEMLALMNEDADWYRNEDTERFKRIQELARKIETANTRQFSSHISKERFEAYQKMGLQFKEIAEEFHITTTALQQWRKDNGYPIYNKNNRK”, the “soluble on expression in E. coli” value is reported as “not soluble”.
Under “MATDTTVQLRAGWQGRFYEDFAVGDVYKHPYGRTVTETDNVWFTNLTMNANPMHFNAAYASGTEFDERLVNGLFVIALSVGMSVVDVSANATANLGYDDIQHHAPVFHGDTLFAESEVLSKRESESRPHVGMVTTELRTYTQDGELVLSLERTPMVRKRGAADPLEHHHHHH” stands “not soluble”; under “MSLRSEVKAEDTWRLEDIFPSDEAWNKEFQAVKELIPNLSKYKGKLADSADHLYEALTYQDKVMERLGRLYTYAHMRSDQDTGNSFYQGLNDKAGNLYTQAESATAYLVPEILSIEEDKLQQFILEKEELKLYSHAIEEITKERPHVLSEKEEALLAEASEVLGSSSNTFSVLNNADITFPSIKDEDGNEKQITHGNFINFLESENREVRKNAFDAVYKTYGQYKNTMATTLSGTVKKDNFYARVKKYKSAREAALSNNSIPEEVYDNLVKTINKHLPLLHRYIALRKKVLELDEVHIYDLYTPLVKDAGMKVTYEEAKDYMLKGLAPLGEEYASILKEGLENRWVDVYENKGKRNGAYSSGAYGTNPYILMNWHNNVNNLFTLVHEFGHSVHSYYTRKHQPYPYGNYSIFVAEVASTTNEALLGEYLLNNLEDEKQRLYILNHMLEGFRGTVFRQTMFAEFEHLIHTKAQEGEPLTPELLTNVYYDLNKKYFGDGMVIDKEIGLEWSRIPHFYYNYYVYQYATGYSAAQALSSQILKEGKPAVDRYIDFLKAGSSQYPIDVLKKAGVDMTSPEPIEAACKMFEEKLDEMEELLMKVKEGHHHHHH”, “soluble”.
To “MAHHHHHHMLRFTHRALARKAAVKAGSRTSAAAGATAALHAAPAAPQNAVSIPPIPGVRSVRAFRTQKMEALQPQPAAATAGRKAFAAKGSKHVKAALKSRPSKKVKLPKKAAAPSRAQQAQQVKHAKQLKAPKSAAKEISKKAKTAKARK” belongs “soluble”; to “MGSDKIHHHHHHYYYARGTYTHYNLDFDQDVTHLLDLGMKQISLEPVVAQPSDPYAFQEGDLPEILKTYDRLGEELLARRRKGEDFSFFHFNVALDQGPCLPKRLSGCGAGHEYVAISPEGDLYPCHQFVGQEEFKMGSLGQEGVPLNPEIIAKFRSAHVYSKAACRQCWARFSCSGGCHSANHAFSGQLNEVYALGCEFQKKRLEVALYMKIKEA”, “not soluble”; to “MITIKKQEIVKLEDVLHLYQAVGWTNYTHQTEMLEQALSHSLVIYLALDGDAVVGLIRLVGDGFSSVFVQDLIVLPSYQRQGIGSSLMKEALGNFKEAYQVQLATEETEKNVGFYRSMGFEILSTYDCTGMIWINREK”, “soluble”.
For the sequence “MGSDKIHHHHHHMIKVALLHFGFEDYTIELANSLSKYVDLTLINPKKLSDVCGDAFDPSIRVVSFKKPRIRDPRNLLSMNAMMRIIKDIQPDVLHVQETNDPWYDWTLLLNKMPPLVTTIHDVFRHPGDKVAVFGSEYTRRIAFYRSQQLIVHTHQLKKILIEQFNLPEGRVNVIPHGELGSLYQHRGDRSNQPRDPNTLLFFGRIWPYKGLKYLLEAMPLIAECVPEVKLIIAGRGENIKEYFPNGYDENRYEIINRLIPLEEVSNLFQRSTVTVLPYIEASQSGVAALSYGMGTLVVASDVGGLSEIVQHKKDGLLVPPRDVRALADAIICLLSDRDLQQKMQTAALARCQQDLNWSNIAAQTVEVYQKTMKPIHQ”, the “soluble on expression in E. coli” value is listed as “not soluble”.
Regarding “RPNDIYVNMKTDFKAQLARCQKLLDGGARGQNACSEIYIHGLGLAINRAINIALQLQAGSFGSLQVAANTSTVELVDELEPETDTREPLTRIRNNSAIHIRVFRVTPK”, the “soluble on expression in E. coli” value was “not soluble”.
Regarding “QQGNPNLSSPQPILDTIYKLLSEQEQTLVQMIHEQSLLLNRLPPTLDENSLAPLKSLSQKQITLSGQMNTEMSALDATKKGMILEPTDLAKLFALKQDLQIQFKQLSLLHNEIQSILNPQHSAPKPNVALVLKSQPFPVVISKGKQLGENQLVVLVLTGARSNFHINGPVKATMICDSHPTNKNNPTTPLEMDSQPIYPATLTAHFPLKFLAGTRKCSVNLKFGVNIRDLDNVTTTVESDASNPFVVITNECQWEGSAGVLLKKDAFDGQLEITWAQFINTLQRHFLIATKQDPVRPKRPLSSYDLKYIQTHFFGNRSIIHQQDFDKFWVWFGKSMQTLRYQRHISTLWQEGIIYGYMGRQEVNDALQNQDPGTFIIRFSERNPGQFGIAYIGVEMPARIKHYLVQPNDTAAAKKTFPDFLSEHSQFVNLLQWTKDTNGAPRFLKLHKDTALGSFAPKRTAPVPVGGYEPLNS”, the “soluble on expression in E. coli” value was “soluble”.
As for “MTELARLKFYATQPHSCSYLPEEQATTLFLDPSQPMDVHVYADLSEMGFRRSGDHLYRPHCQNCNACVPARIPAARFIPNRQQRRILKRNADLTVTAARPAFKEEYFELYRRYIETRHADGDMYPPSRDQFSTFLVRDLPFCWFYEFRLEGRLMAVAVCDLLPNGLSAVYTFYEPDEERRSLGRFAILWQITEALRQNLEAVYLGYWIKNCKKMNYKTQYRPIELLINQRWVTLNLEHHHHHH”, the “soluble on expression in E. coli” value is given as “not soluble”.
Under “MSLASQSEAEVLIGVAGPMSGKLAWTGTQLRRGAEMAVANINAAGGVLGQQVRLIVADDFCDPRQALAAAEKLVADGAVFVIGHYCSGASIPASKIYAAAGVLQISPSSTNPMLTEQGHANVFRVCSRDDAQGHKAGNYLADHWGDSKIAILHDNTTYGKGLADETKKQLNMRGVTEAVYQSYTPGKDDYSVEVAALQTAHIAVLYLGGYHTEAALMVRAARDRAYPVQLISGDDTATEAFGLIAGPAAEGTLFTFVADPRRNAEAAEVVERFRAENFEPDSWTLHSYGAAEIWAQAVTKANSLDLQAVIAALREDQFDTVLGRIDFDKKGDLTVQSWVWYVWKSGEYVPVEEGHHHHHH” stands “soluble”; under “MRLIVVSGQSGAGKSVALRVLEDLGYYCVDNLPVSLLTAFIQSVQGSQQNVAVSIDIRNLPKEPSLVQDVLDQLKQNNDVSMLFLDASKETLLKRYSETRRIHPLSLSQSKPSLAQAIELEKQLLGPLKEQADLLLDSSNQSLHELSETVRMRIEGRERKDLVMVFQSFGFKYGLPTDADYVFDVRFLPNPHWEPDLRPLTGLDAPIKSFLEGHSEVMELKQQIQKFFEYWLPMLEKNNRSYLTIAIGCTGGKHRSVYLTQQLGEYFAQLGHQVQLRHTSLEKQQS”, “not soluble”.
Turning to “MKDTLGFEHADRSLYYRFRNSLSSNLHLTHFDIETKLEVAKKFNLILNDQFVKDLNSTMNLIFEPNGCLASYTWKTDFLDYTLNPMELIIPYQSVIPSKTVPYRKRRMNDLEDLRKIKECSKRAFISNSDQSEVPSTSMLNSMKEMITEAVETSNKKLIEELKTSNEALVAQVANFKSKHIEQSSGKPGMRAYLEGLKGFLHHLNMPELADIKVRLNTLEKDLGDTDQPIPVQSIHSVLDIGLKLIGG”, the “soluble on expression in E. coli” value was “not soluble”.
To “MSLKVGECMTKFNWHESAEKKWDSSAEFWNQNSQEMWDSGSRSTIIPFFEQYVKKEAEVLDVGCGDGYGTYKLSRTGYKAVGVDISEVMIQKGKERGEGPDLSFIKGDLSSLPFENEQFEAIMAINSLEWTEEPLRALNEIKRVLKSDGYACIAILGPTAKPRENSYPRLYGKDVVCNTMMPWEFEQLVKEQGFKVVDGIGVYKRGVNEKMLGQLSTDLQQSLTFLWVFMLKRHKEMKEFLGGKEGHHHHHH” belongs “soluble”; to “MKIKQALFTAGYSSFYFDDQQAIKNGAGHDGFIYTGDPVTPGFTSVRQAGECVSVQLILENGAVAVGDCAAVQYSGAGGRDPLFLAEHFIPFLNDHIKPLLEGRDVDAFLPNARFFDKLRIDGNLLHTAVRYGLSQALLDATALASGRLKTEVVCDEWQLPCVPEAIPLFGQSGDDRYIAVDKMILKGVDVLPHALINNVEEKLGFKGEKLREYVRWLSDRILSLRSSPRYHPTLHIDVYGTIGLIFDMDPVRCAEYIASLEKEAQGLPLYIEGPVDAGNKPDQIRMLTAITKELTRLGSGVKIVADEWCNTYQDIVDFTDAGSCHMVQIKTPDLGGIHNIVDAVLYCNKHGMEAYQGGTCNETEISARTCVHVALAARPMRMLIKPGMGFDEGLNIVFNEMNRTIALLQTKD”, “soluble”; to “AAGTVFTTVEDLGSKILLTCSLNDSATEVTGHRWLKGGVVLKEDALPGQKTEFKVDSDDQWGEYSCVFLPEPMGTANIQLHGPPRVKAVKSSEHINEGETAMLVCKSESVPPVTDWAWYKITDSEDKALMNGSESRFFVSSSQGRSELHIENLNMEADPGQYRCNGTSSKGSDQAIITLRVRSH”, “soluble”.
“GPGSMDAIHILKENALRLVSAGQPISALHLVEVLCELQPDSDENRSLKIRCLYELREFDSVLKLAKQVTFACDQNSEVFLLAVKAAFELGDLKTCVQYAMTLINADSSKVVAMCFVAKAAELSGDPAKAVRFYKMALEADPFCGEAFSALTERHLLDRWEMLKLIDSLCIPAEVEVYRSTLKARIGSDYLTPGISGVPRTLVLLAGAKKEYESNNLRQALSLTTEILEVEPYHRQTLCLHLCILVDSKATPLLFEKAHFLSKNKCYTELAVYAIGCFYYSLSNYERAGRYFSRASELDCYFAEAWVAYGHCYAKLEEGEQALNVYRRTMNFFPGLNACCTYVGMQYSRVNQRSVARCFFEESLRKNSIDPLVLNELGVLALAEDNPKQALELFQKAYDSLPNRENPSEHSDCILFNLATMYRKLGRYEAAIDYYNQYVRSRPNASHGHCALGFTYHLSGNIKAAISCYHTAESIKPDSFCRDLLRRALELDFGACGRLSWDSERPHLSFSPGEVSFSTVSRRFRSESTAADSVAASPPPRVGRSLDFQHQ”: the “soluble on expression in E. coli” value was “not soluble”.
